The values below come from publication PMC6727974 (Nature microbiology, 2018).

For experiment [1], the target named is T1, EV-D68 capsid protein VP1 (strain STL-2014-12) (Enterovirus D68, STL-2014-12 (KM881710), strain).
T1 chain: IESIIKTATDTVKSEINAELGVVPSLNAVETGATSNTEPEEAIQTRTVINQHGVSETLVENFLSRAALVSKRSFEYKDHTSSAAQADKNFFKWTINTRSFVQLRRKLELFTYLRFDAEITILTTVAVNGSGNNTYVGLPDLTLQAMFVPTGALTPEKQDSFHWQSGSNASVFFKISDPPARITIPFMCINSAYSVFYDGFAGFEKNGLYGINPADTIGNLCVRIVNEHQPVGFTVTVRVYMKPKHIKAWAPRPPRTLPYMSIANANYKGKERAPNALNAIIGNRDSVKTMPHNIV
As to the kind of experiment: cryo-EM structure.

Experiment [2] has as its target EV-D68 A-particle (strain STL-2014-12) (Enterovirus D68, STL-2014-12 (KM881710), strain). The experiment can be described thus: cryo-EM structure.
Experiment [3] deals with T2, EV-D68 procapsid (strain STL-2014-12) (Enterovirus D68, STL-2014-12 (KM881710), UniProt A0A097F8Q2;PDB, strain). The experiment can be described thus: cryoEM with 2D classification.
Experiment [4] has as its target T3, EV-D68 capsid protein VP3 (strain STL-2014-12) (Enterovirus D68, STL-2014-12 (KM881710), strain).
T3 chain: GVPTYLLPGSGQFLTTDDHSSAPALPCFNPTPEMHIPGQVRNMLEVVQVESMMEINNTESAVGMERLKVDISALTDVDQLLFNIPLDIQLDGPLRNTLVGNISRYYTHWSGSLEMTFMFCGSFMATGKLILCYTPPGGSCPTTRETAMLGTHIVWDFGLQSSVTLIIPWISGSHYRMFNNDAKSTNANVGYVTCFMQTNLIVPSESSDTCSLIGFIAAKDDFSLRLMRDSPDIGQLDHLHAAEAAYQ
The experiment can be described thus: cryo-EM structure.

Experiment [5] deals with T4, EV-D68 capsid protein VP2 (strain STL-2014-12) (Enterovirus D68, STL-2014-12 (KM881710), strain).
T4 chain: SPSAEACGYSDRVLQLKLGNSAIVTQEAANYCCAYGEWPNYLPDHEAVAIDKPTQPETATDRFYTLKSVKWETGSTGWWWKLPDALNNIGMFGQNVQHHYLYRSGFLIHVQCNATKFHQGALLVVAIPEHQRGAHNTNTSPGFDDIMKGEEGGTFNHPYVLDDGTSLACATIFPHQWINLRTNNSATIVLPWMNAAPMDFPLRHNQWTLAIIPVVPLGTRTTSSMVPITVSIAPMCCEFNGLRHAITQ
The experiment can be described thus: cryo-EM structure.

Experiment [6] has as its target T2, EV-D68 procapsid (strain STL-2014-12). As to the kind of experiment: ELISA.

B1: Fab 11G1 (Fab, V domains shown)
VH: QVQLQQSGAELVRPGVSVKISCKGSGYIFTDYVMHWVKQSHSKSLEWIGVISTYYGDGSYNQKFKGKATMTVDKSSSTAYMELARLTSEDSAIYYCVRGENYYGVSGTMDYWGQGTSVTVSS
VL: DIVMSQSPSSLAVSVGEKVTMSCKSSQSLLYSNNQKNYLAWYQQKPGQSPQLLIYWASTRESGVPDRFTGSESGTDFTLTISSVKAEDLAVFYCQQYYNYPWTFGGGTKLEIK
On to B1, for which the binding result in experiment [1] is “binds”. The “stoichiometry N” value in experiment [2] amounted to 60 copies per particle.

B2: Fab 15C5 (Fab, V domains shown)
VH: QVQLQQSGTELAKPGASVKMSCKASGYTFTNYWMHWFKQRPGQGLEWIGYVNPNTDYTDYNHKFKDKATLTADKSSSTAYMQLSSLTSEDSAVYFCARGTFGNYASFAYWGQGTLV
VL: DIQMIQSPSSMFASLGDRVSLSCRASQDIRGNLDWYQQKPGGTIKLLIYSTSNLNSGVPSRFSGSGSGSDYSLTISSLESEDFADYYCLQRNAYPLTFGGGTKLEIK
Turning to B2, the binding result in experiment [3], in experiment [4] and in experiment [5] was “binds” throughout. Also, the “stoichiometry N” value in experiment [2] is 60 copies per particle.

B3: monoclonal antibody 15C5 (antibody, V domains shown)
VH: B2 VH
VL: B2 VL
As for B3, the binding result in experiment [6] is “binds”.

One may read the stoichiometry N as the number of molecules, sites or subunits per partner or assembly.
